Each block holds one binder with its values, some of them ahead of it. Ends that are not written are not given here.
Key:
[1] = molecular target: T1, epidermal growth factor receptor (EGFR), endogenous in human cell lines (human, UniProt P00533 25-1210); assay: co-immunoprecipitation from lysates of MCF10A and BT474 cells, western blot
T1 construct: whole, on cells; Detected on western blots of lysate precipitates; also called ErbB-1; HER1
Description: (§1) Cells were washed once with washing buffer (50 mM Hepes, 50 mM NaCl and 10 mM EDTA, pH 7.4) and lysed for 20 min on ice in 1% Triton X-100 containing a 1:1000 dilution of protease inhibitor mixture set III (Calbiochem) in washing buffer. Cell debris was removed by centrifugation at 20,000 g for 15 min at 4° C. […] Visualization of immune-reactive bands was performed using ECF reagent (GE Healthcare) and scanned on a Typhoon Trio Variable Mode Imager (GE-Healthcare) in blue fluorescence.

[2] = molecular target: T2, β4^R1733A mutant of the β4 cytoplasmic domain (binding construct) (human, UniProt P16144-2 1677-1752); assay: binding of β4 cytoplasmic domain mutants to syndecan
T2 construct: not shown: 6×His tag and leader of the pTRC-His A vector
T2 sequence (looked up): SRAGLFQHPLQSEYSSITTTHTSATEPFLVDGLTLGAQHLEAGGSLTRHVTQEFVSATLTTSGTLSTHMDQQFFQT

[3] = molecular target: T1, epidermal growth factor receptor …; assay: cell-based or functional assay
[4] = molecular target: T1, epidermal growth factor receptor …; assay: co-immunoprecipitation of mouse syndecan chimeras from HaCat cells, western blot
Description: (FIG. 6A) Mouse syndecan chimeras in which their ectodomains are switched are expressed in HaCat cells, then immunoprecipitated with antibodies specific for the mouse syndecan ectodomains. […] HER2 or EGFR are immunoprecipitated from the lysates directly for comparison.
as §1

B1: syndecan-1 (Sdc1), human, endogenous in human cell lines (receptor, UniProt P18827 23-310, looked up)
chain: QIVATNLPPEDQDGSGDDSDNFSGSGAGALQDITLSQQTPSTWKDTQLLTAIPTSPEPTGLEATAASTSTLPAGEGPKEGEAVVLPEVEPGLTAREQEATPRPRETTQLPTTHLASTTTATTAQEPATSHPHRDMQPGHHETSTPAGPSQADLHTPHTEDGGPSATERAAEDGASSQLPAAEGSGEQDFTFETSGENTAVVAVEPDRRNQSPVDQGATGASQGLLDRKEVLGGVIAGGLVGLIFAVCLVGFMLYRMKKKDEGSYSLEEPKQANGGAYQKPTKQEEFYA
notes: whole, on cells; Used as the comparison for Sdc4 in co-immunoprecipitation
binding result [1]: no binding

B3: GST-S4ED, recombinant Sdc4 ectodomain fused to GST (other, UniProt P31431 19-145, looked up, not shown: a dimerising Fc or GST)
chain: ESIRETEVIDPQDLLEGRYFSGALPDDEDVVGPGQESDDFELSGSGDLDDLEDSMIGPEVVHPLVPLDNHIPERAGSGSQVPTEPKKLEENEVIPKRISPVEESEDVSNKVSMSSTVQGSNIFERTE
IC50, EGF-stimulated chemotaxis of MCF10A cells or HaCat keratinocytes [3]: 100 to 300 nM

B4: SSTNEGFR synthetic peptide truncated of amino acids 126-131 (peptide)
peptide: NHIPERAGSGSQVPTEPKKLEENEVIPKRISPVEESEDV
activity against EGF-stimulated cell migration, relative to SSTNEGFR [3]: ≥ 100 fold reduction

B5: SSTNEGFR, synthetic peptide of amino acids 87-131 of the human Sdc4 ectodomain (peptide)
peptide: NHIPERAGSGSQVPTEPKKLEENEVIPKRISPVEESEDVSNKVSM
IC50, EGF-stimulated migration of MCF10A cells, scratch wound closure [3]: 100 to 300 nM

B6: SSTNEGFR synthetic peptide with amino acids 99-108 mutated to alanine (peptide)
peptide: NHIPERAGSGSQAAAAAAAAAANEVIPKRISPVEESEDVSNKVSM
activity against EGF-stimulated cell migration, relative to SSTNEGFR [3]: 10 fold reduction

Now from value to binder:

binding result [2]: no binding
B2: GST-S1CD, Sdc1 cytoplasmic domain fused to GST (other)
chain: {GST}-RMKKKDEGSYSLEEPKQANGGAYQKPTKQEEFYA
notes: The result sentences say only Sdc1; not shown: glutathione S-transferase (GST) fusion partner

binding result [4]: no binding
B7: mouse syndecan chimera: mSdc4 with its ectodomain swapped for that of Sdc1 (receptor, UniProt P18828 23-255, looked up)
chain: QIVAVNVPPEDQDGSGDDSDNFSGSGTGALPDTLSRQTPSTWKDVWLLTATPTAPEPTSSNTETAFTSVLPAGEKPEEGEPVLHVEAEPGFTARDKEKEVTTRPRETVQLPITQRASTVRVTTAQAAVTSHPHGGMQPGLHETSAPTAPGQPDHQPPRVEGGGTSVIKEVVEDGTANQLPAGEGSGEQDFTFETSGENTAVAAVEPGLRNQPPVDEGATGASQSLLDRKEVLGVLAALIVGGVVGILFAVFLILLLVYRMKKKDEGSYDLGKKPIYKKAPTNEFYA
notes: extracellular domain;domain: transmembrane and cytoplasmic domains; Expressed in HaCat cells; also called Sdc4 displaying the Sdc1 ectodomain
